Experimental data from article PMC3737412, “Species-Specific and Cross-Reactive IgG1 Antibody Binding to Viral Capsid Protein 1 (VP1) Antigens of Human Rhinovirus Species A, B and C” (PLoS ONE, 2013).

What was measured:
Assay in all cases: SEC
[1] = molecular target: Recombinant GST-fusion HRV-A34 VP1 with a C-terminal histidine tag (human rhinovirus A34 (HRV-A species))
[2] = molecular target: Recombinant GST-fusion HRV-B69 VP1 with a C-terminal histidine tag (human rhinovirus B69 (HRV-B species))
[3] = molecular target: Recombinant GST-fusion HRV-C3 VP1 with a C-terminal histidine tag (human rhinovirus C3 (HRV-C species))
[4] = molecular target: Recombinant GST-fusion HRV-C5 VP1 with a C-terminal histidine tag (human rhinovirus C5 (HRV-C species))
[5] = molecular target: Recombinant GST-fusion human poliovirus (HPV) Sabin VP1 with a C-terminal histidine tag (human poliovirus Sabin)
SEC = molecular target: the molecule itself

Recombinant GST-fusion HRV-A34 VP1 with a C-terminal histidine tag (natural protein)
stoichiometry N [1]: 10

Recombinant GST-fusion HRV-B69 VP1 with a C-terminal histidine tag (natural protein)
stoichiometry N [2]: 10

Recombinant GST-fusion HRV-C3 VP1 with a C-terminal histidine tag (natural protein)
stoichiometry N [3]: 10

Recombinant GST-fusion HRV-C5 VP1 with a C-terminal histidine tag (natural protein)
stoichiometry N [4]: 10

Recombinant GST-fusion human poliovirus (HPV) Sabin VP1 with a C-terminal histidine tag (natural protein)
stoichiometry N [5]: 10

B1: Recombinant GST-fusion HRV-A1B VP1 with a C-terminal histidine tag (natural protein)
chain: SGPIEQNPVENYIDEVLNEVLVVPNIKESHHTTSNSAPLLDAAETGHTSNVQPEDAIETRYVMTSQTRDEMSIESFLGRSGCVHISRIKVDYNDYNGVNKNFTTWKITLQEMAQIRRKFELFTYVRFDSEVTLVPCIAGRGDDIGHVVMQYMYVPPGAPIPKTRNDFSWQSGTNMSIFWQHGQPFPRFSLPFLSIASAYYMFYDGYDGDNSSSKYGSIVTNDMGTICSRIVTEKQEHPVVITTHIYHKAKHTKAWCPRPPRAVPYTHSRVTNYVPKTGDVTTAIVPRASMKTV
stoichiometry N (SEC): ~10

B2: Recombinant GST-fusion HRV-B14 VP1 with a C-terminal histidine tag (natural protein)
chain: TVALTEGLGDELEEVIVEKTKQTVASISSGPKHTQKVPILTANETGATMPVLPSDSIETRTTYMHFNGSETDVECFLGRAACVHVTEIQNKDATGIDNHREAKLFNDWKINLSSLVQLRKKLELFTYVRFDSEYTILATASQPDSANYSSNLVVQAMYVPPGAPNPKEWDDYTWQSASNPSVFFKVGDTSRFSVPYVGLASAYNCFYDGYSHDDAETQYGITVLNHMGSMAFRIVNEHDEHKTLVKIRVYHRAKHVEAWIPRAPRALPYTSIGRTNYPKNTEPVIKKRKGDIKSY
stoichiometry N (SEC): ~10
